Patent US20220135649A1 (University of California, published 2022)
Substitutions are numbered along the chain they refer to. Numbers in names are those of the source. Ends that are not written are not given here.

T1: wild-type soluble CD40L fragment (residues 118-261) with no N-terminal KGD motif (human, UniProt P29965 118-261)
T1 construct: also called WT CD40L; WT sCD40L; not shown: His tag from the PET28a vector (Ni-NTA purification, anti-His detection)
T1 sequence: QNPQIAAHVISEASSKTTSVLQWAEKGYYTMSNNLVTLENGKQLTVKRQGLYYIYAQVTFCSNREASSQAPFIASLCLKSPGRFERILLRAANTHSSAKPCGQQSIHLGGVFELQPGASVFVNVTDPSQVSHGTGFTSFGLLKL

B1: site 2 peptide of integrin β3 fused to GST (peptide)
chain: QPNDGQSHVGSDNHYSASTTM
modifications: also: fused to GST, order not given here
notes: also called peptide from site 2 of β3; not shown: glutathione S-transferase fusion partner
B2: CD40L HIGMS1 mutant H224Y (soluble fragment) (ligand)
chain: T1 sequence with H107Y
notes: not shown: His tag from the PET28a vector (Ni-NTA purification, anti-His detection)
B3: CD40L HIGMS1 mutant G227V (soluble fragment) (ligand)
chain: T1 sequence with G110V
notes: as for B2
B4: CD40L HIGMS1 mutant L258S (soluble fragment) (ligand)
chain: T1 sequence with L141S
notes: as for B2
B5: CD40L HIGMS1 mutant G226A (soluble fragment) (ligand)
chain: T1 sequence with G109A
notes: as for B2
B6: CD40L HIGMS1 mutant T176I (soluble fragment) (ligand)
chain: T1 sequence with T59I
notes: Printed as T1761, read as T176I; also called T1761 (so in the source); not shown: His tag from the PET28a vector (Ni-NTA purification, anti-His detection)
B7: CD40L HIGMS1 mutant Q174R (soluble fragment) (ligand)
chain: T1 sequence with Q57R
notes: as for B2
B8: CD40L G252E mutant (soluble fragment) (ligand)
chain: T1 sequence with G135E
notes: Mutant of the soluble CD40L fragment; also called dnCD40L; CD40L decoy; not shown: His tag from the PET28a vector (Ni-NTA purification, anti-His detection)
B9: CD40L H224E/G226E mutant (soluble fragment) (ligand)
chain: T1 sequence with H107E, G109E
notes: as for B8
B10: CD40L Y170E mutant (soluble fragment) (ligand)
chain: T1 sequence with Y53E
notes: Mutant of the soluble CD40L fragment; also called Y170 to E; dnCD40L; not shown: His tag from the PET28a vector (Ni-NTA purification, anti-His detection)

Target: T1, wild-type soluble CD40L fragment …
Experiment: ELISA-type: immobilized CD40L, site 2 peptide fused to GST, bound GST measured

| binding result | Binder |
| --- | --- |
| binds | B1 |

Target: T2, CD40 fragment (residues 21-144) fused to GST (UniProt P25942 21-144)
T2 construct: range 21-144; Made in E. coli BL21 from PGEX2T (BamHI/EcoRI), purified on glutathione-sepharose; also called CD40 fused to GST; not shown: glutathione S-transferase encoded by the PGEX2T vector
Experiment: ELISA-type CD40 binding (as for FIG. 11)

T2 sequence (P25942 21-144): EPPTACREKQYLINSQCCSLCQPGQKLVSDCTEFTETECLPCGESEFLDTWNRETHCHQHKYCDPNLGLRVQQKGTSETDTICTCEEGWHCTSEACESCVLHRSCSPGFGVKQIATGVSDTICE

| binding result | Binder |
| --- | --- |
| binds | B2 |
| binds | B3 |
| binds | B4 |
| binds | B5 |
| binds | B6 |
| binds | B7 |

Target: T2, CD40 fragment (residues 21-144) fused …
Experiment: ELISA-type: immobilized CD40 (21-144)-GST, CD40L mutant in solution

| binding result | Binder |
| --- | --- |
| binds | B8 |
| binds | B9 |
| binds | B10 |
